B1: eukaryotic initiation factor 2 β-subunit (eIF2β) (natural protein, Saccharomyces cerevisiae, UniProt P09064 1-285, looked up)
chain: MSSDLAAELGFDPALKKKKKTKKVIPDDFDAAVNGKENGSGDDLFAGLKKKKKKSKSVSADAEAEKEPTDDIAEALGELSLKKKKKKTKDSSVDAFEKELAKAGLDNVDAESKEGTPSANSSIQQEVGLPYSELLSRFFNILRTNNPELAGDRSGPKFRIPPPVCLRDGKKTIFSNIQDIAEKLHRSPEHLIQYLFAELGTSGSVDGQKRLVIKGKFQSKQMENVLRRYILEYVTCKTCKSINTELKREQSNRLFFMVCKSCGSTRSVSSIKTGFQATVGKRRRM
modifications: found in the purified protein (Table 1): N-term-ac-S2, pS40, acK89, pS91, pS92, pS112
notes: eIF2 β-subunit, encoded by SUI3 in yeast Saccharomyces cerevisiae; Expressed from plasmid pAV1089 [SUI2 SUI3 6xHisGCD22 URA3]; N-terminal acetylation on S2 implies that the first methionine is removed; also called SUI3; source: S. cerevisiae strain GP3511 overexpressing the three eIF2 subunits
B2: eukaryotic initiation factor 2 α-subunit (eIF2α) (natural protein, Saccharomyces cerevisiae, UniProt P20459 1-304, looked up)
chain: MSTSHCRFYENKYPEIDDIVMVNVQQIAEMGAYVKLLEYDNIEGMILLSELSRRRIRSIQKLIRVGKNDVAVVLRVDKEKGYIDLSKRRVSSEDIIKCEEKYQKSKTVHSILRYCAEKFQIPLEELYKTIAWPLSRKFGHAYEAFKLSIIDETVWEGIEPPSKDVLDELKNYISKRLTPQAVKIRADVEVSCFSYEGIDAIKDALKSAEDMSTEQMQVKVKLVAAPLYVLTTQALDKQKGIEQLESAIEKITEVITKYGGVCNITMPPKAVTATEDAELQALLESKELDNRSDSEDDEDESDDE
modifications: found in the purified protein (Table 1): N-term-ac-S2, pS194, pS292, pS294, pS301
notes: eIF2 α-subunit, encoded by SUI2 in yeast Saccharomyces cerevisiae; Expressed from plasmid pAV1089 [SUI2 SUI3 6xHisGCD22 URA3]; N-terminal acetylation on S2 implies that the first methionine is removed; also called SUI2; source: S. cerevisiae strain GP3511 overexpressing the three eIF2 subunits

Assay [1] has as its target T1, eukaryotic initiation factor 2 γ-subunit (eIF2γ), His-tagged (Saccharomyces cerevisiae, UniProt P32481 1-527, found in the purified protein (Table 1): pT60, acK129, pT137, pS258, pS265, pS312, acK401, acK519).
T1 construct: eIF2 γ-subunit, encoded by GCD11 in yeast Saccharomyces cerevisiae (the methods print the plasmid's gene as '6xHisGCD22'); also called GCD11; source: S. cerevisiae strain GP3511 overexpressing the three eIF2 subunits
The experiment in a line: native MS; intact His-tagged eIF2 purified from yeast, buffer exchanged against 500 mM ammonium acetate; QSTAR XL modified for high-mass complexes; tandem MS of the 24+ charge state of intact eIF2. As to conditions: both partners purified.

Assay [2] deals with B2. The experiment in a line: cross-linking; purified apo eIF2 with a 1:1 mixture of 2.5 mM BS3-d0/d4, 1 h, room temperature; gel, trypsin, LC-MS/MS; also compared with the ternary complex (Met-tRNAi^Met, GDPNP) by BS3-d0 against BS3-d4. The note with it: both partners purified.

T1 sequence (P32481 whole entry): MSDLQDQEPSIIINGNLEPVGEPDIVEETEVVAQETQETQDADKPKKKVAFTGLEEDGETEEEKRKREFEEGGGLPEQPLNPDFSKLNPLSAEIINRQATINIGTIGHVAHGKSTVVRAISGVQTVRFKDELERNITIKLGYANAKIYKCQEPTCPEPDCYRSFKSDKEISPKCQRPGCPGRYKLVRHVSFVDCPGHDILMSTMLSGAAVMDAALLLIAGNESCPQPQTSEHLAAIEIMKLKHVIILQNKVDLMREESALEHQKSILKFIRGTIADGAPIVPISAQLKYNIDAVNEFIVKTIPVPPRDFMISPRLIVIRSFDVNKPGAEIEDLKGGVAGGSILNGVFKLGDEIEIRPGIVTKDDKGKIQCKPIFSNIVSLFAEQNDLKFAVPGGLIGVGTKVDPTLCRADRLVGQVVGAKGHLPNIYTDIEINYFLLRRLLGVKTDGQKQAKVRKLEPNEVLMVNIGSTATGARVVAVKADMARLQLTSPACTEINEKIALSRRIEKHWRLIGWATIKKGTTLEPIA

As for B1, the “stoichiometry N” value in assay [1] came to 1. Further, the binding result in assay [2] is “binds”.
For B2, in assay [1], the “stoichiometry N” value came to 1.

One may read the stoichiometry N as the number of molecules, sites or subunits per partner or assembly.

The values are drawn from publication PMC4860841, “eIF2 interactions with initiator tRNA and eIF2B are regulated by post-translational modifications and conformational dynamics” (Cell Discovery, 2015).
